In PMC11740425 one finds pMut-HLA binding positivity rate and EC50 (functional avidity) of TCR Jurkat cells for KRAS^G12D peptide data, which are given here for one substance.

Test [1] deals with TCR1 with the T30Q mutation in CDR-1A (human | mouse). Kind of test: flow cytometry on cells.
For test [2] the target is unchanged.

In test [1], “KRAS^G12D peptide presented by HLA-A*11:01 (KRAS^G12D tetramer) (from UniProt P61769 21-119; P01116 7-16) (peptide-MHC)” returned a pMut-HLA binding positivity rate of 60%. Besides, the EC50 (functional avidity) of TCR Jurkat cells for KRAS^G12D peptide in test [2] turned out to be 53 nM.
